Patent publication US20240350588A1 (SUNSHINE LAKE PHARMA, published 2024)
Where a chain is given by its changes, count along the chain named. One block for each binder: values may come before it.

Target: T1, human GFRAL (UniProtKB-Q6UXVO) (human, UniProt Q6UXV0 19-394)
T1 sequence (looked up): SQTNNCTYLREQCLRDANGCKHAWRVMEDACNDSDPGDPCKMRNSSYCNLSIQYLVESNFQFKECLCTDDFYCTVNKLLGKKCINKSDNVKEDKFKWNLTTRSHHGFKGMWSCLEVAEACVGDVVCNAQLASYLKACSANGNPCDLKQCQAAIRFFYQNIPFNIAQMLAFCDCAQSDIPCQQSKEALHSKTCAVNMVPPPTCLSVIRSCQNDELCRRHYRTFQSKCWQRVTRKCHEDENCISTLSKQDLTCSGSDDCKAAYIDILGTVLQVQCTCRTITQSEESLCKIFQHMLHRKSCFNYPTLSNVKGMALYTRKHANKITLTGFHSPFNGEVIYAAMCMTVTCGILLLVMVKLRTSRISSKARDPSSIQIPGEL
Assay: cell-based or functional assay

Relative activity ratio (native GDF15 EC50: Fc-GDF15 construct EC50), ERK1/2 phosphorylation HTRF in HEK293T cells expressing human GFRAL and RET: 1.42 ratio
B4: Fc-GDF15 fusion protein M22 (Fc fusion)
chain: APEAAGGPSVFLFPPKPKDTLMISRTPEVTCVVVDVSQEDPEVQFNWYVDGVEVHNAKTKPREEQFNSTYRVVSVLTVLHQDWLNGKEYKCKVSNKGLPSSIEKTISKAKGQPREPQVYTLPPSQEEMTKNQVSLTCLVKGFYPSDIAVEWESNGQPENNYKTTPPVLDSDGSFFLYSRLTVDKSRWQEGNVFSCSVMHEALHNHYTQESLSLSLGGGGGSGGGGSAPAPAPAPAPAPAPAPAPAPGGGGSGGGGSDECPLGPGRCCRLHTVRASLEDLGWADWVLSPREVQVTMCIGACPSQFRAANMHAQIKTSLHRLKPDTVPAPCCVPASYNPMVLIQKTDTGVSLQTYDDLLAKDCHCI

Relative activity ratio (native GDF15 EC50: Fc-GDF15 construct EC50), ERK1/2 phosphorylation HTRF in HEK293T cells expressing human GFRAL and RET: 2.65 ratio
B5: Fc-GDF15 fusion protein M24 (Fc fusion)
chain: B4 chain with E258H, R273Q

Relative activity ratio (native GDF15 EC50: Fc-GDF15 construct EC50), ERK1/2 phosphorylation HTRF in HEK293T cells expressing human GFRAL and RET: 2.91 ratio
B8: Fc-GDF15 fusion protein M26 (Fc fusion)
chain: B4 chain with E258H, D278E

Relative activity ratio (native GDF15 EC50: Fc-GDF15 construct EC50), ERK1/2 phosphorylation HTRF in HEK293T cells expressing human GFRAL and RET: 2.66 ratio
B9: Fc-GDF15 fusion protein M27 (Fc fusion)
chain: B4 chain with E258H, D278E, K321R

Relative activity ratio (native GDF15 EC50: Fc-GDF15 construct EC50), ERK1/2 phosphorylation HTRF in HEK293T cells expressing human GFRAL and RET: 4.76 ratio
B10: Fc-GDF15 fusion protein M25 (Fc fusion)
chain: B4 chain with E258H, R273H

Relative activity ratio (native GDF15 EC50: Fc-GDF15 construct EC50), ERK1/2 phosphorylation HTRF in HEK293T cells expressing human GFRAL and RET: 3.38 ratio
B13: Fc-GDF15 fusion protein M23 (Fc fusion)
chain: APEAAGGPSVFLFPPKPKDTLMISRTPEVTCVVVDVSQEDPEVQFNWYVDGVEVHNAKTKPREEQFNSTYRVVSVLTVLHQDWLNGKEYKCKVSNKGLPSSIEKTISKAKGQPREPQVYTLPPSQEEMTKNQVSLTCLVKGFYPSDIAVEWESNGQPENNYKTTPPVLDSDGSFFLYSRLTVDKSRWQEGNVFSCSVMHEALHNHYTQESLSLSLGGGGGSGGGGSAPAPAPAPAPAPAPAPAPAPGGGGSGGGGSECPLGPGRCCRLHTVRASLEDLGWADWVLSPREVQVTMCIGACPSQFRAANMHAQIKTSLHRLKPDTVPAPCCVPASYNPMVLIQKTDTGVSLQTYDDLLAKDCHCI

Relative activity ratio (native GDF15 EC50: Fc-GDF15 construct EC50), ERK1/2 phosphorylation HTRF in HEK293T cells expressing human GFRAL and RET: 1 ratio
B14: natural GDF15 (ACROBiosystems, GD5-H5149) (ligand)
chain: ARNGDHCPLGPGRCCRLHTVRASLEDLGWADWVLSPREVQVTMCIGACPSQFRAANMHAQIKTSLHRLKPDTVPAPCCVPASYNPMVLIQKTDTGVSLQTYDDLLAKDCHCI

Further lines, the binder ahead of its results:

B1: Fc-GDF15 fusion protein M2 (Fc fusion)
chain: APEAAGGPSVFLFPPKPKDTLMISRTPEVTCVVVDVSQEDPEVQFNWYVDGVEVHNAKTKPREEQFNSTYRVVSVLTVLHQDWLNGKEYKCKVSNKGLPSSIEKTISKAKGQPREPQVYTLPPSQEEMTKNQVSLTCLVKGFYPSDIAVEWESNGQPENNYKTTPPVLDSDGSFFLYSRLTVDKSRWQEGNVFSCSVMHEALHNHYTQESLSLSLGGGGGSGGGGSAPAPAPAPAPAPAPAPAPAPGGGGSGGGGSARNGDHCPLGPGRCCRLHTVRASLEDLGWADWVLSPREVQVTMCIGACPSQFRAANMHAQIKTSLHRLKPDTVPAPCCVPASYNPMVLIQKTDTGVSLQTYDDLLAKDCHCI
Relative activity ratio (native GDF15 EC50: Fc-GDF15 construct EC50), ERK1/2 phosphorylation HTRF in HEK293T cells expressing human GFRAL and RET: 3.27 ratio

B2: Fc-GDF15 fusion protein M9 (Fc fusion)
chain: B4 chain with E126R, E209K, E258H
Relative activity ratio (native GDF15 EC50: Fc-GDF15 construct EC50), ERK1/2 phosphorylation HTRF in HEK293T cells expressing human GFRAL and RET: 1.33 ratio

B3: Fc-GDF15 fusion protein M20 (Fc fusion)
chain: B4 chain with D257E, E258H
Relative activity ratio (native GDF15 EC50: Fc-GDF15 construct EC50), ERK1/2 phosphorylation HTRF in HEK293T cells expressing human GFRAL and RET: 3.08 ratio

B6: Fc-GDF15 fusion protein M10 (Fc fusion)
chain: B4 chain with E126Q, E209K, E258H
Relative activity ratio (native GDF15 EC50: Fc-GDF15 construct EC50), ERK1/2 phosphorylation HTRF in HEK293T cells expressing human GFRAL and RET: 1.62 ratio

B7: Fc-GDF15 fusion protein M11 (Fc fusion)
chain: B4 chain with E126A, E209K, E258H
Relative activity ratio (native GDF15 EC50: Fc-GDF15 construct EC50), ERK1/2 phosphorylation HTRF in HEK293T cells expressing human GFRAL and RET: 2.02 ratio

B11: Fc-GDF15 fusion protein M13 (Fc fusion)
chain: EAAGGPSVFLFPPKPKDTLMISRTPEVTCVVVDVSQEDPEVQFNWYVDGVEVHNAKTKPREEQFNSTYRVVSVLTVLHQDWLNGKEYKCKVSNKGLPSSIEKTISKAKGQPREPQVYTLPPSQEEMTKNQVSLTCLVKGFYPSDIAVEWESNGQPENNYKTTPPVLDSDGSFFLYSRLTVDKSRWQEGNVFSCSVMHEALHNHYTQESLSLSLGGGGGSGGGGSAPAPAPAPAPAPAPAPAPAPGGGGSGGGGSDHCPLGPGRCCRLHTVRASLEDLGWADWVLSPREVQVTMCIGACPSQFRAANMHAQIKTSLHRLKPDTVPAPCCVPASYNPMVLIQKTDTGVSLQTYDDLLAKDCHCI
Relative activity ratio (native GDF15 EC50: Fc-GDF15 construct EC50), ERK1/2 phosphorylation HTRF in HEK293T cells expressing human GFRAL and RET: 1.89 ratio

B12: Fc-GDF15 fusion protein M21 (Fc fusion)
chain: B13 chain with E257D
Relative activity ratio (native GDF15 EC50: Fc-GDF15 construct EC50), ERK1/2 phosphorylation HTRF in HEK293T cells expressing human GFRAL and RET: 3.87 ratio
